According to US12649783B2, “Anti-MCT1 antibodies and uses thereof” (IMMUNEXT INC., priority 2018, dated 2026):

Legend:
xeno-GVHD = assay: xeno-GvHD model with anti-MCT1 antibodies (human PBMC into NSG mice); type: in vivo, mouse
Procedure: In this model of GvHD animals male NSG mice are treated with sub-lethal irradiation (250 rad), and afterward these mice receive 2.5×10^6 of fresh human PBMC (day 0). First dose of anti-human MCT1 is combined with cells and injected i.v. The follow up treatment schedule is weekly (day 7, 14 and 21, IP).
For re-challenge experiments previously treated with anti-MCT1 (days 0, 7, 14, 21) NSG mice receive a second dose of 2.5×10^6 of previously frozen human PBMC of the same donor (day 42). Survival and weight loss of these mice is monitored with no additional antibody treatments and compared to a new cohort of NSG mice receiving same donor PBMCs.
100 ul of total blood is used for analysis: blood was stained using a Stain-1 wash protocol to allow absolute cell count with Ab panel below followed by FACS lysis buffer 1× (BD Bioscience, #349202); whole blood was incubated with a 10× antibody (shown below) and after 30 min, the blood was lysed in a large volume of 1× lysis buffer (at least 6 times) following manufacturer instructions; or blood was first lysed with ACK (10 min), washed in PBS and stained with antibody mix, exactly as described in the table below.

human T cells = assay: metabolomics of treated T cells; type: cell-based; settings: preliminary
[1] = target: T1, MCT1 transport of lactate (Homo sapiens, UniProt P53985); assay: lactate FLIPR assay; type: cell-based; settings: activated T cells; FLIPR Tetra, BCECF; read-out: Kd for block of lactate transport
T1 construct: endogenous in cells
T1 sequence (P53985 1-500): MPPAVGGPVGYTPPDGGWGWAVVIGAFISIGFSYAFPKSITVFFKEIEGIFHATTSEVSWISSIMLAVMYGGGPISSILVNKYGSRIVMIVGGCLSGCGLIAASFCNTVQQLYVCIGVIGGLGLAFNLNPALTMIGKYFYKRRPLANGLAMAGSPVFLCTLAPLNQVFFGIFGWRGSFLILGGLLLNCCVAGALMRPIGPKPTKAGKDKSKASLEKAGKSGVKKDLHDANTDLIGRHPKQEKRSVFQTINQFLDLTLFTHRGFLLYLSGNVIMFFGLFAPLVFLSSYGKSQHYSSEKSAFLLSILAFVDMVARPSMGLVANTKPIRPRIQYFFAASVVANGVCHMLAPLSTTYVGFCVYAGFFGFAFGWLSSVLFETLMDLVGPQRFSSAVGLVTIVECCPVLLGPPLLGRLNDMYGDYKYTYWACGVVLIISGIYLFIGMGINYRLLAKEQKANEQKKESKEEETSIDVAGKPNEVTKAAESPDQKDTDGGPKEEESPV
From the text: Effects on lactate transport.
Inhibition of lactate transport.

rat MCT1 = target: T2, rat MCT1 (Rattus norvegicus, UniProt P53987); assay: flow cytometry binding to PBMCs, rat
T2 construct: endogenous in cells; host or cells: rat PBMCs
T2 sequence (P53987 1-494): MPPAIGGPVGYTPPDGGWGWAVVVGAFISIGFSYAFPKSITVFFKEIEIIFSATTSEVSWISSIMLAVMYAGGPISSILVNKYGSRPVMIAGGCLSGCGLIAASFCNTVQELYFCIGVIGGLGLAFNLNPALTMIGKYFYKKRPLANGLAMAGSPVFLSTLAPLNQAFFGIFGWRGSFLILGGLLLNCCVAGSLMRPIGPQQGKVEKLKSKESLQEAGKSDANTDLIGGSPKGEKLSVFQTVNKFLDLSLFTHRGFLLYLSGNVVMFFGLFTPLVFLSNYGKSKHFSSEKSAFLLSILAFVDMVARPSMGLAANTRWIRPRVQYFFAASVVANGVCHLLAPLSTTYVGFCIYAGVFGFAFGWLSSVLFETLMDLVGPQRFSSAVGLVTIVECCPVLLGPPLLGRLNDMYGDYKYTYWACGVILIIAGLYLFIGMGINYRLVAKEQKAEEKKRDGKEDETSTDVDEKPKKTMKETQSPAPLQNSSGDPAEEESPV
From the text: (§1) FIG. 12A-D show the cross-reactivity of MCT1 Ab1 as assessed via flow cytometry measurements of binding to MCT1 on the surface of different species' PBMCs.
(§2) Binding affinity and MCT1 cross-reactivity. […] MCT1 Ab1 is also highly cross-reactive with cynomolgus (cyno) and rabbit MCT1, but not with rodent MCT1 (FIG. 12A-D).

cynomolgus MCT1 = assay: flow cytometry binding to PBMCs, cynomolgus
From the text: as §1, §2

MCT1 on T cells = target: T3, MCT1 on T cells (Homo sapiens, UniProt P53985); assay: staining of naive and activated T cells; type: binding
T3 construct: endogenous in cells
T3 sequence (P53985 1-500): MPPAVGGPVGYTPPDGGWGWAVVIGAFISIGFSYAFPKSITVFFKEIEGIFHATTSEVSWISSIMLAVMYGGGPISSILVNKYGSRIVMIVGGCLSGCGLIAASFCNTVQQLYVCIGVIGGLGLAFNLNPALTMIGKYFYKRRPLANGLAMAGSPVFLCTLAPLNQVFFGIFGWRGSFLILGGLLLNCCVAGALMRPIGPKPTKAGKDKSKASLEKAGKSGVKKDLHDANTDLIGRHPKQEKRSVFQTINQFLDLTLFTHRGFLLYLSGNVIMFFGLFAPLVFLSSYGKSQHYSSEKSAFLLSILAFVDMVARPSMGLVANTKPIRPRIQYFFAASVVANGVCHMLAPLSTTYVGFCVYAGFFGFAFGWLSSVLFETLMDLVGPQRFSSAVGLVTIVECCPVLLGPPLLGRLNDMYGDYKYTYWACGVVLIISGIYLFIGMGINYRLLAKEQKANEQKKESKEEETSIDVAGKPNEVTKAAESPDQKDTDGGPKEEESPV
From the text: The only staining in FIG. 13A corresponds to nucleus staining, confirming the presence of the naïve T cells.
MCT1 Ab1 binding to activated T cells. […] This binding confirms the expression data presented in FIG. 2 and confirms the prediction based on mRNA analysis.

[2] = repeated dosing safety in cynomolgus monkeys; type: in vivo, cynomolgus monkey
From the text: In order to further corroborate the safety and efficacy of anti-MCT1 antibodies for human therapy we administered dosages of 50 mpk of anti-human MCT1 antibodies to cynomolgus monkeys. As disclosed in this example and corroborated by the figure referenced herein no toxicity was observed after 30 days.
As shown in FIG. 23 cynomolgus red blood cells (RBCs) express high levels of MCT1. Based thereon we tested the effects of antagonistic anti-MCT1 antibodies in cyno monkeys and in particular looked at any effects on RBCs after anti-MCT1 antibody dosing. Also, we determined whether cynos could tolerate a therapeutic effective dosage of the antibody.

CD4+ and CD8+ T cells = assay: proliferation of CD4+ and CD8+ T cells; type: cell-based; settings: different antibody concentrations
rabbit MCT1 = assay: flow cytometry binding to PBMCs, rabbit
From the text: as §1, §2

PK in cynos = type: in vivo, cynomolgus monkey; settings: preliminary PK data
[3] = test system: human RBC lactate transport; assay: FLIPR lactate transport in purified human RBCs; type: cell-based; settings: 10 mM lactate
Procedure: MCT1 Ab1 and AZ3965 were used to inhibit MCT1 lactate transport in purified human RBCs using FLIPR based transport assays (REF. 1, 2) in the presence of 10 mM lactate. The levels of lactate transport were compared to a no lactate control condition and a no inhibitor condition in the presence of lactate.

[4] = test system: allogeneic activation / T cell proliferation; assay: human mixed lymphocyte reaction (MLR); type: cell-based
From the text: Human mixed lymphocyte reaction (MLR).
(§3) Inhibition of T cell proliferation, inflammatory cytokine production, and allogeneic activation. […] An anti-MCT1 antibody or antibody fragment of the invention may also be tested for its ability to inhibit the production of inflammatory cytokines, relative to controls, in stimulated T cells on day 3 post-stimulation. MCT1 Ab1As with CD3/CD28 activation, MCT1 Ab1 inhibited allogeneic activation by 50-60% in a human mixed lymphocyte reaction (see, e.g., FIG. 17).

MCT1 = target: T4, MCT1 (Homo sapiens, UniProt P53985); assay: bromopyruvate toxicity assay (ATPlite); type: cell-based; settings: bromopyruvate 150 μM; ATPlite; read-out: Kd for inhibition of bromopyruvate toxicity (protection from cell death)
T4 construct: HEK-293 WT cells only express MCT1/CD147 and no other MCTs as measured by RT-PCR; endogenous in cells; host or cells: HEK293T
T4 sequence (P53985 1-500): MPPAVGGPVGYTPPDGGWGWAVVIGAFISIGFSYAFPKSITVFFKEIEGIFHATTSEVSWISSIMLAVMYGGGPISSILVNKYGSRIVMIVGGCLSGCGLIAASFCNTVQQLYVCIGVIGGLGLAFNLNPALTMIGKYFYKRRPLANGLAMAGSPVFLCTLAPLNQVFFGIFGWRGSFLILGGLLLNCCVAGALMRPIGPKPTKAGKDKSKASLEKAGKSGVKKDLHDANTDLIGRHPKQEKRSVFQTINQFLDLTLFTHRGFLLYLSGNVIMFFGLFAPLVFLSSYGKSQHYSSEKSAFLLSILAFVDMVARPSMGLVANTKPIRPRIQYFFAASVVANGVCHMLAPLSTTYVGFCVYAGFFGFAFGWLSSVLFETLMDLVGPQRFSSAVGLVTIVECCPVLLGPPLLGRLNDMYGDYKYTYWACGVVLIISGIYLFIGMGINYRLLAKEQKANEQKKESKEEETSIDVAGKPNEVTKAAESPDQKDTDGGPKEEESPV
Procedure: Inhibition of bromopyruvate toxicity. Since MCT1 is the sole transporter necessary for the in vitro efficacy of the anti-cancer toxin bromopyruvate (Reference 66), a second cell-based functional assay was developed to measure the in vitro killing of cells using this toxin at a concentration of 150 μM.
HEK293T cells are pre-treated with anti-MCT1 antibody or small molecular MCT1 inhibitor at 37° C. for 1 hour. Cells are then incubated with a cytotoxic reagent 3-bromopyruvate (3-BrPy) at concentrations that rand from 25 to 500 μM for 2 to 6 hours. ATP from dying cells will be quantified using a commercial viability kit (ATPlite, PerkinElmer) in a 96-well plate and viability measured using luminescence. Reduction of ATP production indicates functionality of the antibody. A positive control antibody is the mouse or chimeric antibody before humanization. A negative control cell line is MCT1/CD147 double knockout 293T cells. Using this assay functional, i.e., antagonistic anti-MCT1 antibodies may be identified.

T cell proliferation = T cell proliferation assay (CD3/CD28 stimulated); type: cell-based, human; settings: CD3/CD28 stimulated cultures; read-out: EC50 inhibition of T cell proliferation
Procedure: MCT1, MCT2, MCT4, and BSG (CD147) expression were measured in unstimulated and stimulated leukocytes from two different donors. For the “stimulated” condition, cells were CD3/CD28 activated for 3 days. Stimulated cells were tested for inhibition of proliferation by AZ3965.
Human T cell proliferation.
as §3

[5] = target: T5, MCT1 on the surface of human PBMCs (Homo sapiens, UniProt P53985); assay: flow cytometry binding to PBMCs, human
T5 construct: endogenous in cells; host or cells: human PBMCs (unstimulated and stimulated)
T5 sequence (P53985 1-500): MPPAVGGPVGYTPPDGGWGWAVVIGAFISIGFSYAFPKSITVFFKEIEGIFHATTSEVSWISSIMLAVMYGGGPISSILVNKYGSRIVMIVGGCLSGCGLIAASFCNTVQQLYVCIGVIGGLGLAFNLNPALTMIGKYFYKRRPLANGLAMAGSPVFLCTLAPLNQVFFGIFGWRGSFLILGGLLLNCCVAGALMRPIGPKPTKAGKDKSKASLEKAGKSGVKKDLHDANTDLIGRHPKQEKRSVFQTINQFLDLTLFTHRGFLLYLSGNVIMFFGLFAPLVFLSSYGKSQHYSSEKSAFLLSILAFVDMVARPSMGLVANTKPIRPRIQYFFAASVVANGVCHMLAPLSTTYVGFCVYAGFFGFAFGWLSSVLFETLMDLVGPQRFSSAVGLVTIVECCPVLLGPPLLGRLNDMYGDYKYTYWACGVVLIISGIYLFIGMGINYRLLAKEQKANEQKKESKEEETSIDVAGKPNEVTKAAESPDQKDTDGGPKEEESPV
From the text: as §1, §2

B1: MCT1 Ab1: rat anti-human MCT1 monoclonal antibody (rat/human chimera); VH/VL SEQ ID NO: 2/3 (antibody, V domains shown)
VH: QVQLKATGPGLVQPTQTLSITCTVSGFSLTNYHLQWVRQTPGKGLEWMGFIRSSGNTEYNSEFKSRLSISRDTSKNQVFLKMNSLKTDDTGVYYCARNSWYHGTYYSPGYYVMDAWGQGASVTVSS
VL: NIHLTQSPSLLSASVGDRVTLSCKGSQNINNYLAWFQQKFGETPKLLIYNRHNLQTGIPSRFSGSGSGTDYTLTINSLQPEDVATYFCYQYSDGYTFGAGTKLELK
modifications: MCT1 Ab1 (INX310) VH; MCT1 Ab1 (INX310) VL
number of CD3+, CD4+ and CD8+ effector T cells (xeno-GVHD; compared to NSG mice treated with control antibody): significant decrease in the number of CD3^+, CD4^+ and CD8^+ effector T cells
Tr1 cells (xeno-GVHD; compared to control antibody): increases in Tr1 cells
MABEL in xeno-GVHD (xeno-GVHD; mouse, in vivo): ~1 mpk
survival, long-term protection and tolerance (xeno-GVHD; re-challenge at day 42 with PBMC of the same donor): increased survival, long-term protection and tolerance induction
metabolomics findings in treated T cells (human T cells): improved generation of ATP and NADH, along with increased oxidative metabolism and viability
Kd [1]: 7.6 nM
binding to MCT1 on PBMCs (rat MCT1): does not bind to rat MCT1
binding to MCT1 on PBMCs (cynomolgus MCT1): binds to cynomolgus MCT1
staining of activated T cells (MCT1 on T cells; CD3/CD28 activated cells, day 3): stains the surface of CD3/CD28 activated cells on day 3
staining of naive T cells (MCT1 on T cells; naïve cells): does not stain naïve cells
histological findings (heart, muscle, testis and eye, H & E) ([2]; 4 weekly doses at 50 mpk): no adverse histological findings
in-life toxicity ([2]; 30 days, 4 weekly doses at 50 mpk): no significant in-life toxicity
RBC mass after dosing ([2]; cynos, 50 mpk): initial reduction of RBC mass after dosing this resolves after a short time
tolerability of repeated dosing ([2]; cynos, 50 mpk): tolerate repeated dosing
proliferation of CD4+ and CD8+ T cells (CD4+ and CD8+ T cells): inhibited the proliferation of CD4^+ and CD8^+ T cells
binding to MCT1 on PBMCs (rabbit MCT1): binds to rabbit MCT1
dose rate at which the RBC sink is saturated (PK in cynos): ≥ 5 mpk
lactate transport in human RBCs [3]: unaffected
inhibition of allogeneic activation [4]: 50-60%
Kd (MCT1): 1.2 nM
EC50 (T cell proliferation): 1.3 nM
binding to MCT1 on PBMCs [5]: binds to MCT1 on the surface of human PBMCs
